Results on one variant are retold here after IntAct's records for PubMed 16905657.

The labels stand for the following.
B1: Clathrin heavy chain 1 (Arabidopsis thaliana (Mouse-ear cress)), Q0WNJ6 (parent)
chain: MAAANAPIIMKEVLTLPSVGIGQQFITFTNVTMESDKYICVRETAPQNSVVIIDMNMPMQPLRRPITADSALMNPNSRILALKAQVPGTTQDHLQIFNIEAKAKLKSHQMPEQVAFWKWITPKMLGLVTQTSVYHWSIEGDSEPVKMFDRTANLANNQIINYKCSPNEKWLVLIGIAPGSPERPQLVKGNMQLFSVDQQRSQALEAHAASFAQFKVPGNENPSILISFASKSFNAGQITSKLHVIELGAQPGKPSFTKKQADLFFPPDFADDFPVAMQVSHKFNLIYVITKLGLLFVYDLETASAIYRNRISPDPIFLTSEASSVGGFYAINRRGQVLLATVNEATIIPFISGQLNNLELAVNLAKRGNLPGAENLVVQRFQELFAQTKYKEAAELAAESPQGILRTPDTVAKFQSVPVQAGQTPPLLQYFGTLLTRGKLNSYESLELSRLVVNQNKKNLLENWLAEDKLECSEELGDLVKTVDNDLALKIYIKARATPKVVAAFAERREFDKILIYSKQVGYTPDYMFLLQTILRTDPQGAVNFALMMSQMEGGCPVDYNTITDLFLQRNLIREATAFLLDVLKPNLPEHAFLQTKVLEINLVTFPNVADAILANGMFSHYDRPRVAQLCEKAGLYIQSLKHYSELPDIKRVIVNTHAIEPQALVEFFGTLSSEWAMECMKDLLLVNLRGNLQIIVQACKEYCEQLGVDACIKLFEQFKSYEGLYFFLGSYLSMSEDPEIHFKYIEAAAKTGQIKEVERVTRESNFYDAEKTKNFLMEAKLPDARPLINVCDRFGFVPDLTHYLYTNNMLRYIEGYVQKVNPGNAPLVVGQLLDDECPEDFIKGLILSVRSLLPVEPLVAECEKRNRLRLLTQFLEHLVSEGSQDVHVHNALGKIIIDSNNNPEHFLTTNPYYDSKVVGKYCEKRDPTLAVVAYRRGQCDEELINVTNKNSLFKLQARYVVERMDGDLWEKVLTEENEYRRQLIDQVVSTALPESKSPEQVSAAVKAFMTADLPHELIELLEKIVLQNSAFSGNFNLQNLLILTAIKADPSRVMDYINRLDNFDGPAVGEVAVDAQLYEEAFAIFKKFNLNVQAVNVLLDNVRSIERAVEFAFRVEEDAVWSQVAKAQLREGLVSDAIESFIRADDTTQFLEVIRASEDTNVYDDLVRYLLMVRQKVKEPKVDSELIYAYAKIERLGEIEEFILMPNVANLQHVGDRLYDEALYEAAKIIYAFISNWAKLAVTLVKLQQFQGAVDAARKANSAKTWKEVCFACVDAEEFRLAQICGLNIIIQVDDLEEVSEYYQNRGCFNELISLMESGLGLERAHMGIFTELGVLYARYRYEKLMEHIKLFSTRLNIPKLIRACDEQQHWQELTYLYIQYDEFDNAATTVMNHSPEAWEHMQFKDIVAKVANVELYYKAVHFYLQEHPDIINDLLNVLALRLDHTRVVDIMRKAGHLRLIKPYMVAVQSNNVSAVNEALNEIYAEEEDYDRLRESIDLHDSFDQIGLAQKIEKHELVEMRRVAAYIYKKAGRWKQSIALSKKDNMYKDCMETASQSGDHDLAEQLLVYFIEQGKKECFATCLFVCYDLIRPDVALELAWINNMIDFAFPYLLQFIREYSGKVDELIKDKLEAQKEVKAKEQEEKDVMSQQNMYAQLLPLALPAPPMPGMGGGGYGPPPQMGGMPGMSGMPPMPPYGMPPMGGY
partner: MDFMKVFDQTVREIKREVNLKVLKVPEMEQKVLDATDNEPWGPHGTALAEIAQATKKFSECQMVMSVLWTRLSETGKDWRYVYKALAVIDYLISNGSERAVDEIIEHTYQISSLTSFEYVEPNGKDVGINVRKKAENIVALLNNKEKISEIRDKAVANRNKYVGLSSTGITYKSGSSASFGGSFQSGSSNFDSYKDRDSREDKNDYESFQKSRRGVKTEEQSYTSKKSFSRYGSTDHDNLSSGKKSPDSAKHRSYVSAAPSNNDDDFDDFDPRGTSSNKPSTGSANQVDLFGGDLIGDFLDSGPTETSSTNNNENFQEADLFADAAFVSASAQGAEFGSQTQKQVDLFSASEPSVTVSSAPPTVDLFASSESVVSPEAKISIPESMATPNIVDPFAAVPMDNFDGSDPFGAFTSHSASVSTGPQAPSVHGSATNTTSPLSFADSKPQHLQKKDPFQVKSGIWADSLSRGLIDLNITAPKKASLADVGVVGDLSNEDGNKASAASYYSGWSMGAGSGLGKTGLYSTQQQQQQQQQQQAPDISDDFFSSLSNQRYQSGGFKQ

This assay covers variants of B1. The settings on record: with epn1_arath EPSIN1, Q8VY07.
With L470R, the “effect of a mutation on the interaction” value is “disrupting interaction”.
